The source of these data is paper PMC3114436 (Molecular cell, 2008).

One test deals with Caulobacter ClpS (Caulobacter vibrioides, UniProt Q9A5I0). The experiment in a line: ClpS binding assay by fluorescence anisotropy. The following applies: Fig. 3B. More on the design: species or system Caulobacter crescentus. (In general: Fluorescence polarisation rises when a labelled molecule tumbles more slowly, as on binding a larger partner.)
Test [1] has as its target peptides with Tyr, Trp, Phe, or Leu at the N-terminus. Nature of the test: fluorescence polarisation.
The target in test [2] is T1, C. crescentus ClpS residues 35-119 (Caulobacter crescentus, UniProt Q9A5I0 35-119).
T1 sequence (looked up): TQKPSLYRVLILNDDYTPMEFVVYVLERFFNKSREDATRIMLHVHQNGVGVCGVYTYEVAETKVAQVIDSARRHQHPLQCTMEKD
The experiment in a line: fluorescence polarisation.

Test [3] concerns the target T1, C. crescentus ClpS residues 35-119. Nature of the test: crystal structure.

No end group written: not given here.

Consider “Xxx-Leu-Phe-Val-Gln-Tyr-His6-Cys [Tyr peptide]”, for which, on Caulobacter ClpS, the “affinity for Caulobacter ClpS (in words)” value is recorded as “sub-micromolar”.

B1: C. crescentus ClpS residues 35-119 (domain or fragment)
chain: TQKPSLYRVLILNDDYTPMEFVVYVLERFFNKSREDATRIMLHVHQNGVGVCGVYTYEVAETKVAQVIDSARRHQHPLQCTMEKD
In general, Kd refers to a measure of binding affinity in units of concentration. Read a low Kd as tighter binding. With B1, in test [1], the dissociation constant Kd fell in the range of 150 to 500 nM.

B2: E. coli ClpS D36A (natural protein)
chain: MGKTNDWLDFDQLAEEKVRDALKPPSMYKVILVNDAYTPMEFVIDVLQKFFSYDVERATQLMLAVHYQGKAICGVFTAEVAETKVAMVNKYARENEHPLLCTLEKA
On to B2, for which the KM of ClpAP degradation of Tyr-GFP with the ClpS variant (900 nM), fold increase in the test with Tyr-GFP was 2 fold.

B3: E. coli ClpS H66A (natural protein)
chain: MGKTNDWLDFDQLAEEKVRDALKPPSMYKVILVNDDYTPMEFVIDVLQKFFSYDVERATQLMLAVAYQGKAICGVFTAEVAETKVAMVNKYARENEHPLLCTLEKA
B3: the KM of ClpAP degradation of Tyr-GFP with the ClpS variant (900 nM), fold increase in the test with Tyr-GFP worked out at 5 fold.

B4: fluorescein-labelled N-end rule peptide Phe-Leu-Phe-Val-Gln-Tyr-His6-Cys (peptide)
peptide: FLFVQYHHHHHHC(fluorescein maleimide)
On to B4, for which the binding result in test [2] is on record as “binds”.

B5: fluorescein-labelled N-end rule peptide Trp-Leu-Phe-Val-Gln-Tyr-His6-Cys (peptide)
peptide: WLFVQYHHHHHHC(fluorescein maleimide)
B5: the binding result in test [2] was “binds”.

B6: fluorescein-labelled N-end rule peptide Tyr-Leu-Phe-Val-Gln-Tyr-His6-Cys (peptide)
peptide: YLFVQYHHHHHHC(fluorescein maleimide)
B6 gave a Kd in test [2] of roughly 400 nM.

B7: N-end rule decapeptide Tyr-Leu-Phe-Val-Gln-Arg-Asp-Ser-Lys-Glu (peptide)
peptide: YLFVQRDSKE
Take B7: the binding result in test [3] is recorded as “binds”.

B8: fluorescein-labelled N-end rule peptide Leu-Leu-Phe-Val-Gln-Tyr-His6-Cys (peptide)
peptide: LLFVQYHHHHHHC(fluorescein maleimide)
On to B8, for which, in test [2], the binding result is “binds”.
